Test results taken from patent US11110182B2, “Multifunctional RNA nanoparticles and methods for treating cancer and therapeutic resistant cancer” (University of Cincinnati, priority 2016, dated 2021).

Columns and labels:
[1] = system: BT474 cells; assay: MTT assay, BT474 cells; type: cell-based, human
Description: FIG. 3A) BT474 cells were incubated with 10 μg/mL control and pRNA-HER2apt-siMED1 nanoparticles for 48 h, and MED1 mRNA level was determined by real-time PCR. FIG. 3B) BT474 cells were incubated directly with (as indicated by -) or transfected with indicated pRNAs using lipofectamine 2000. At 48 h post treatment, MED1 protein levels were determined by western blotting. FIG. 3C) BT474 cells were treated with 10 μg/mL pRNA nanoparticles for 48 h and assayed for cell viability by MTT assay. FIG. 3D) Cells were treated as above and seeded for migration, and FIG. 3E) invasion transwell assays. Scale bar: 50 μm. FIG. 3F) After pRNA treatment for 48 h, the mRNA levels of ERα target genes TFF-1, FIG. 3G) c-Myc, and FIG. 3H) cyclin D1 in BT474 cells were determined by real-time PCR.
FIG. 4A) BT474 cells were treated with pRNA nanoparticles in combination with vehicle or 1 μM 4-hydroxy-tamoxifen (4-OHT) as indicated for 48 h, and assayed for cell viability by MTT assay. […] FIG. 4E) The number of mammospheres was counted, and FIG. 4F) the mammosphere size was calculated. […]
FIG. 9A) BT474 cells were treated with different concentrations of pRNA nanoparticles as indicated for 48 h. After that, MED1 protein level was determined by western blots, and FIG. 9B) the cell viability was determined by MTT assay. […]

[2] = system: MED1; assay: MED1 protein level by western blots in MCF-7/TAM cells; type: cell-based, human; settings: 10 μg/mL, 48 h
Description: FIGS. 10A-10D. Evidence that pRNA-HER2apt-siMED1 nanoparticles silenced MED1 expression and sensitized two other HER2+ breast cancer cells to tamoxifen treatment. FIG. 10A) Two HER2-overexpressing breast cancer cell lines MCF7/TAM and FIG. 10B) MCF7/HER2, were treated with 10 μg/mL pRNA-HER2apt-siMED1 nanoparticles or scramble control for 48 h, and then MED1 protein level was determined using western blots. FIG. 10C) MCF7/TAM and FIG. 10D) MCF7/HER2 cells were treated with 10 μg/mL pRNA nanoparticles and/or 1 μM tamoxifen (TAM) as indicated for 48 h, and then cell growth was determined using an MTT assay.
Next, the ability of pRNA-HER2apt-siMED1 nanoparticles to silence the expression of MED1 in BT474 and MDA-MB-231 human breast cancer cells was examined. Using real-time PCR analyses, a significant depletion of nearly 70% of MED1 mRNA in BT474 cells after pRNA-HER2apt-siMED1 but not pRNA-HER2apt^mut-siMED1 treatment was found (FIG. 3A).

B1: pRNA-HER2apt-siMED1: 3-WJ pRNA nanoparticle bearing a HER2-targeting RNA aptamer and two different MED1 siRNAs; strands p1 SEQ ID NO: 3, p2 SEQ ID NO: 4 (nucleic acid)
chain 1: GGACAGUGAAAGUGAGUCAAAGGAUCAAUCAUGGCCAAAGAUGUUACUUUGAGAGCCUU
chain 2: GGCUCUCAAAGUAACAUCUAAGGCCAUGUGUAUGUGGGGGGAGGACGAUGCGGUCUGCUGUGCUUGAUAUGCCCCAGACGACUCGCCCCCCACAUACUUUGUUGAUCCAAUGACUCACUUUCACUGUCCUU
modifications: 2'-F modification; third strand may lack entry; pRNA-HER2apt-siMED1, p1; pRNA-HER2apt-siMED1, p2
[1]; BT474, 48 h, nanoparticles alone
  cell growth (MTT): dose-dependently inhibited
[1]; BT474, in combination with 1 μM 4-hydroxy-tamoxifen, 48 h
  effect on tamoxifen inhibition of cell growth: significantly enhanced the inhibitory effects of tamoxifen
[2]
  MED1 silencing: confirmed
